Reference: patent US20230374147A1 (HUMMINGBIRD BIOSCIENCE PTE, published 2023)

T1: His-tagged human BCMA (Acro Biosystems, Cat. #BCA-H522y) (human, UniProt Q02223 1-54)
T1 construct: also called huBCMA; P1; not shown: His tag
T1 sequence: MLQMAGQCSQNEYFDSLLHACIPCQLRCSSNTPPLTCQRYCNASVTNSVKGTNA

T2: human BCMA expressed on cells (human, UniProt Q02223 1-184)
T2 construct: the cell line is named under assay; also called wildtype human BCMA
T2 sequence: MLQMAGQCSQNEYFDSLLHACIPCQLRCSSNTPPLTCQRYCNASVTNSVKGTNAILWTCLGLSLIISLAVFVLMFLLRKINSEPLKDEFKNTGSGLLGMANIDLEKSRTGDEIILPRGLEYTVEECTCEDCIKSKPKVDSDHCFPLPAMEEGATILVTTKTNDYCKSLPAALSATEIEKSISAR

T3: His-tagged mouse BCMA (Acro Biosystems, BCA-M52H3) (mouse, UniProt O88472 1-49)
T3 construct: Bought protein; not shown: His tag
T3 chain: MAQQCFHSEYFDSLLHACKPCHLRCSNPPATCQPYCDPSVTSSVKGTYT

T4: Cyno TACI-His (Sino Biological, 90976-C08H) (cynomolgus macaque, UniProt G7PTR7 1-165)
T4 construct: Bought protein; also called cynomolgous macaque TACI; CyTACI
T4 sequence: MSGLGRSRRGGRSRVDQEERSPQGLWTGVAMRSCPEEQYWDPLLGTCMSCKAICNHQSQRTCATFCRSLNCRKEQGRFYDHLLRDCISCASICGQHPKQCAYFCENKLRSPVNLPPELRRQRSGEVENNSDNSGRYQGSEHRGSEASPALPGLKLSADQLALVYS

T5: recombinant his-tagged human TACI (Sinobiological cat #11937-H08H) (human, UniProt O14836 1-165)
T5 construct: Bought protein; also called Human TACI-His; huTACI; not shown: His tag
T5 sequence: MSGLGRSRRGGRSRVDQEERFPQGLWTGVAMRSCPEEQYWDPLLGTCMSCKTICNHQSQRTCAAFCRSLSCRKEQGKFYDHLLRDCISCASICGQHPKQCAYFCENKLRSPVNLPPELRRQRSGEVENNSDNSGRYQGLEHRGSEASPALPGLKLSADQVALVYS

T6: Human BCMA-His (Sino Biological, 10620-H08H) (human, UniProt Q02223 1-54)
T6 construct: not shown: His tag
T6 sequence: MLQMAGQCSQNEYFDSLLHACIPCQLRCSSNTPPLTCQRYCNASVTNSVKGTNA

B1: 539-SP5-D7 (antibody produced by the hybridoma) (antibody, V domains shown)
VH: EVMLVDSGGNLVKPGGSLKLSCAASGFTFSNYVISWVRQTPEKRLEWVATISTVGTNTYYPDSVRGRFTISRDNAENTLYLQMSSLRSEDTAIYYCSRHKYGYDDPSYAMDYWGQGTSVTVSS
VL: QLVLTQSSSASFSLGASAKLTCTLSSQHSTYTIEWYQQQPLKPPKYVMELKKDGSHSTGDGIPDRFSGSSSGADRYLSISNIQAEDEAIYICGVGDTVKEQFVYVFGGGTKVTVL
notes: Mouse antibody from B cell hybridoma (culture supernatant or IgG purified from it)
B2: 539-SP2-H3 (antibody produced by the hybridoma) (antibody, V domains shown)
VH: EVQLQQSGPELVKPGASVKMSCKASGYTFTSYVIHWVKQKPGQGLEWIGYVLPYNDVIKYNEKFKGKATLTSDKSSSTAYMDLSSLTSEDSAVYYCARWGDFDEGIWFPYWGQGTLVTVSA
VL: DVLMTQTPLSLPVSLGDHASVSCRSSQSIVHTDGNTYLEWYLQKPGQSPKLLIYKVSNRFSGVPDRFSGSGSGTDFTLKISRVEAEDLGVYYCFQGSHVPWTFGGGTKLEIK
notes: as for B1
B3: 552-LN2-E6 (antibody produced by the hybridoma) (antibody, V domains shown)
VH: QIQLVQSGPELKKPGETVKISCMASGYTFTDYSVRWVKQAPGKGLEWMGWINTETGEPTYADDFKGRFAFSLETSASTAYLQINNLKNEDTATYFCAISYYYALDYWGHGTSVTVSS
VL: DIVLTQSPASLTVSLGQRATISCRASKSVSTSVYSFLHWYQQKPGQPPKLLIYLASNLESGVPARFSGSGSGTDFTLNIHPVEEEDAATYYCQHSRELPRTFGGGTKLEIK
notes: as for B1
B4: 552-LN2-F8 (antibody produced by the hybridoma) (antibody, V domains shown)
VH: QIQLVQSGPELKKPGETVKISCKASGYTFTDYTMYWVKQAPGKGLKWMGWINTETGEPTYADDFKGRFVFSLETSANTAYLQINNLKNEDTATYFCAISYYYGMDYWGQGTSVTVTS
VL: DIILTQSPASLAVSLGQRATITCRASKSVSTSGYNFVYWYQQKPGQPPKLLIYLASNLESGVPARFSGSGSGTDFTLNIHPVEEEDAATYYCQHSRELPRTFGGGTKLEIK
notes: as for B1
B5: 552-LN1-F4 (antibody produced by the hybridoma) (antibody, V domains shown)
VH: QIQLVQSGPELKKPGETVKISCMASGYTFTDYSVRWVKQAPGKGLEWMGWINTETGEPTYAHDFKGRFAFSLETSASTAYLQINNLKDEDTSTYFCAISYYYALDYWGHGTSVTVSS
VL: DIVLTQSPASLTVSLGQRATISCRASKSVSTSGYNFLHWYQQKPGQPPKLLIYLASNLESGAPARFSGSGSGTDFTLNIHPVEEEDAATYYCQHSRELPRTFGGGTKLEIK
notes: as for B1
B6: 552-LN1-E9 (antibody produced by the hybridoma) (antibody, V domains shown)
VH: QIQLVQSGPELKKPGETVKISCKASGYTFTDYSIYWVKQAPGKGLKWMGWINTETGEPTYADDFKGRFAFSLETSASSAYLQINTLKNEDTATYFCSISYYYAMDYWGQGTSVTVSS
VL: DIVLTQSPASLAVSLGQRATISCRASKSVSTSGYSFLHWYQQKPGQPPKLLIYFASNLESGVPARFSGSGSGTDFTLNIHPVEEEDAATYYCQHSRELPRTFGGGTKLEIK
notes: as for B1
B7: 1C8-402 hIgG1 (antibody)
heavy: not shown
light: DIQMTQSPSSLSASVGDRVTITCRASQDISNYLSWYQQKPGKAPKLLMRYTSRLHSGVPSRFSGSGSGTDFTLTISSLEQEDFATYYCQQGNLFPPTFGGGTKVEIKRTVAAPSVFIFPPSDEQLKSGTASVVCLLNNFYPREAKVQWKVDNALQSGNSQESVTEQDSKDSTYSLSSTLTLSKADYEKHKVYACEVTHQGLSSPVTKSFNRGEC
notes: also called [90]
B8: 1C8-507 hIgG1 (antibody, V domains shown)
VH: QVQLVQSGAEVKKPGASVKVSCKASGYTFRNYVMHWVKQKPGQGLEWMGWILPYNDGTKYAQKFQGKVTMTSDKSTSTVYMELSSLTSEDTAVYYCARYDYEGSFDYWGQGTLVTVSS
VL: DIQMTQSPSSLSASVGDRVTITCRASQDISNYLNWYQQKPGKAPKLLMRYTSLLHSGVPSRFSGSGSGTDFTLTISSLEQEDFATYYCQQGNTFPPTFGGGTKVEIKR
notes: also called [92]; hu1C8-507
B9: 1C8-403 hIgG1 (antibody, V domains shown)
VH: QVQLVQSGAEVKKPGASVKVSCKASGYTFTNYVMHWVKQKPGQGLEWMGYILPYNDGTKYAQKFQGKVTMTSDKSTSTVYMELSSLTSEDTAVYYCARYDWEGSFDYWGQGTLVTVSS
VL: DIQMTQSPSSLSASVGDRVTITCRASSDISNYLNWYQQKPGKAPKLLMCYTSRLHSGVPSRFSGSGSGTDFTLTISSLEQEDFATYYCQQGNTFPPTFGGGTKVEIKR
notes: also called [91]; hu1C8-403

Tests used:
[1] = molecular target: T1, His-tagged human BCMA (Acro Biosystems, …); experiment: ELISA, IgG purified from hybridoma supernatant, coated His-tagged antigen
[2] = molecular target: T2, human BCMA expressed on cells; experiment: flow cytometry, hybridoma supernatant, HEK293T cells stably expressing human BCMA
[3] = molecular target: T7, His-tagged cynomolgous macaque BCMA (Acro Biosystems, BCA-C52H7) (cynomolgus macaque, UniProt Q02223 1-54 (human entry)); experiment: ELISA, hybridoma supernatant, coated His-tagged antigen
T7 construct: Bought protein; also called cyno BCMA; CyBCMA; not shown: His tag

[4] = molecular target: T1, His-tagged human BCMA (Acro Biosystems, …); experiment: as above
[5] = molecular target: T3, His-tagged mouse BCMA (Acro Biosystems, …); experiment: as above
[6] = molecular target: T4, Cyno TACI-His (Sino Biological, …); experiment: ELISA, coated Cyno TACI-His
[7] = molecular target: T1, His-tagged human BCMA (Acro Biosystems, …); experiment: BLI, IgG on HFC tip, His-tagged human BCMA 300-37.5 nM
[8] = molecular target: T2, human BCMA expressed on cells; experiment: flow cytometry, H929 cells (BCMA+)
[9] = molecular target: T5, recombinant his-tagged human TACI …; experiment: BLI, IgG on HFC tip, His-tagged human TACI 300-37.5 nM
[10] = molecular target: T8, Human HER3-His (Sino Biological, 10201-H08H) (human, UniProt P21860 20-643); experiment: ELISA, coated His-tagged antigen
T8 construct: Specificity control; also called Human HERS-His

[11] = molecular target: T4, Cyno TACI-His (Sino Biological, …); experiment: BLI, IgG on HFC tip, His-tagged cynomolgus TACI 300-37.5 nM
[12] = molecular target: T7, His-tagged cynomolgous macaque BCMA …; experiment: ELISA, coated Cyno BCMA-His
[13] = molecular target: T5, recombinant his-tagged human TACI …; experiment: ELISA, coated Human TACI-His
[14] = molecular target: T6, Human BCMA-His (Sino Biological, …); experiment: ELISA, coated Human BCMA-His
[15] = molecular target: T7, His-tagged cynomolgous macaque BCMA …; experiment: BLI, IgG on HFC tip, His-tagged cynomolgus BCMA 300-37.5 nM
[16] = molecular target: T2, human BCMA expressed on cells; experiment: flow cytometry, fixed RPMI 8226 cells (BCMA+, TACI+: the cells carry both targets)

| Binder | EC50 [1] [µg/mL] | % Parent (percent positive cells) [2] [%] | ELISA values (OD 450 nm) [3] [OD] | ELISA values (OD 450 nm) [4] [OD] | ELISA values (OD 450 nm) [5] [OD] | EC50 [6] [nM] | Kd [7] [µM] | koff [7] [s⁻¹] | kon [7] [M⁻¹ s⁻¹] | EC50 [8] [nM] | Kd [9] [µM] | koff [9] [s⁻¹] | kon [9] [M⁻¹ s⁻¹] | binding result [10] | EC50 [12] [nM] | EC50 [13] [nM] | EC50 [14] [nM] | Kd [15] [µM] | koff [15] [s⁻¹] | kon [15] [M⁻¹ s⁻¹] | also measured |
| --- | --- | --- | --- | --- | --- | --- | --- | --- | --- | --- | --- | --- | --- | --- | --- | --- | --- | --- | --- | --- | --- |
| B1 | 0.0335 | 76.2 | 0.252 | 0.817 |  |  |  |  |  |  |  |  |  |  |  |  |  |  |  |  |  |
| B2 | 0.152 | 74.3 | 0.669 | 0.813 | 0.542 |  |  |  |  |  |  |  |  |  |  |  |  |  |  |  |  |
| B3 | 0.0505 | 60.8 | 0.729 | 0.832 | 0.002 |  |  |  |  |  |  |  |  |  |  |  |  |  |  |  |  |
| B4 | 0.0585 | 73.8 | 1.83 | 0.884 | 0.001 |  |  |  |  |  |  |  |  |  |  |  |  |  |  |  |  |
| B5 | 0.037 | 66.4 | 1.89 | 0.845 | 0.006 |  |  |  |  |  |  |  |  |  |  |  |  |  |  |  |  |
| B6 | 0.071 | 75.4 | 2.07 | 0.836 | 0.017 |  |  |  |  |  |  |  |  |  |  |  |  |  |  |  |  |
| B7 |  |  |  |  |  | 0.004 | 0.000791 | 0.00312 | 3.95e+06 | 0.128 | 0.0702 | 0.0576 | 821000 | no binding (tested: 3 µg/ml (highest concentration)) | 0.002 | 0.02 | 0.11 | 0.0024 | 0.00272 | 1.13e+06 | Kd [11]: 0.00259 µM; koff [11]: 0.00186 s⁻¹; kon [11]: 718000 M⁻¹ s⁻¹; EC50 [16]: 0.000136 µM |
| B8 |  |  |  |  |  | 0.011 | 0.0591 | 0.00172 | 29200 | 0.095 | 0.61 | 0.163 | 267000 | no binding (tested: 3 µg/ml (highest concentration)) | 0.038 | 0.021 | 0.087 | 0.0217 | 0.0354 | 1.63e+06 | EC50 [16]: 0.000136 µM |
| B9 |  |  |  |  |  | 0.034 | 0.0586 | 0.00288 | 49200 | 0.134 | 1100 | 0.131 | 118 | no binding (tested: 3 µg/ml (highest concentration)) | 0.016 | 0.051 | 0.062 | 0.00654 | 0.00917 | 1.4e+06 | EC50 [16]: 0.000172 µM |
